For data set [1], the system named is AML1 cell line. Briefly: Drug resistance assay by WST method with or without osteoblast cell in the medium. It is filed as cell-based, human. How it is done:
Effect of the presence of osteoblast cell on the drug resistance of AML1 cell line derived from human acute myelocytic leukemia (AML) was examined.
Specifically, by WST method, in which water-soluble formazan was produced, viability of AML1 cell line was evaluated under the presence of VP16 (5 μM), a kind of etoposide-based anticancer drug, between the cases of presence and absence of osteoblast cell in culture medium. It should be noted that AML1 cell line is fixed to medium plate through osteoblast cell when the osteoblast cell exists in the medium.
In addition, effect of the presence of the osteoblast cell on the drug resistance of AML1 cell line was examined, when Ara-C, a kind of anticancer drug of […] was used in place of VP16 as the anticancer drug. Specifically, the drug resistance assay was carried out by WST method using the same procedures as the above-mentioned method excepting that Ara-C (1 μg/mL) was used in place of VP16 as the anticancer drug.
Drug resistance assay by WST method was carried out by the same procedures as the above-mentioned Reference Example 5 (in the presence of Ara-C) using each of the above-established AML1 (shEVI1) cell and AML1 (shLuc) cell in place of AML1 cell line.

Data set [2] has as its system HNT34 cell line. The experiment in a line: Cellular adhesiveness assay of HNT34 cell line. It is filed as cell-based, human. The following applies: HNT34(shEVI1) compared with HNT34(shLuc); FIG. 6. How it is done:
(§1) Specifically, 100 μL of 40 times-diluted growth factor reduced matrigel (produced by BD Biosciences) with RPMI1640/10% FCS was added to each well of a 96-well plate, incubated at 4° C. for 6 hours, and washed twice with PBS. The above-mentioned cell was added to each of the wells at 10000 cells/100 μL. After that, the cell was incubated at 37° C. for 2 hours and washed three times with PBS. After that, 90 μL of RPMI1640/10% FCS and 10 μL of Cell counting kit 8 (produced by DOJINDO Laboratories) were added to each well, incubated at 37° C. for 30 minutes and measured at wavelength of 450 nm by a spectrophotometer.
The cellular adhesiveness was evaluated for the above-mentioned established HNT34(shEVI1) and HNT34(shLuc) by the same method as the above-mentioned Example 1-2.

Data set [3] relates to genes of various integrin families. Briefly: Expression of integrin family genes by PCR in HNT34 cell line transfected with shEVI1. It is filed as cell-based, human. The following applies: HNT34(shEVI1) vs HNT34(shLuc); transfection with Nucleofector; FIG. 5. An excerpt: (§2) EVI1 expression-inhibited HNT34 cell line (hereinafter, also called “HNT34(shEVI1)”) was established by the transfection of shEVI1, which was used in the above-mentioned Example 1-1, using Nucleofector (produced by Amaxa Biosystems), a gene transfection system, into HNT34 cell line derived from human. In the same way, the cell line transfected with shLuc (hereinafter, also called “HNT34 (shLuc)”) was established. For these cell lines, expression of EVI1 gene and genes of various integrin families were confirmed by the same method as in the Example 1.

In data set [4] the test system is EVI1 gene. The experiment in a line: EVI1 gene expression by PCR in HNT34 cell line transfected with shEVI1. It is filed as cell-based, human. As to conditions: HNT34(shEVI1) vs HNT34(shLuc); transfection with Nucleofector; FIG. 5.
Excerpt: as §2

The subject of data set [5] is HNT34 cell line. Briefly: Cellular proliferative ability assay of HNT34 cell line (Cell counting kit 8). In kind it is cell-based, human. As to conditions: HNT34(shEVI1) vs HNT34(shLuc) control cell line; FIG. 7. As for the experimental part: Cellular proliferative ability was evaluated for the above-mentioned established HNT34(shEVI1) and HNT34(shLuc).
Specifically, cells diluted with RPMI1640/10% FCS were added to each well of a 96-well plate at 1000 cells/100 μL. After that, the cell suspension was incubated at 37° C. for an appropriate time, each 10 μL of Cell counting kit 8 (produced by DOJINDO Laboratories) was added, incubated at 37° C. for 30 minutes, and measurement was carried out at wavelength of 450 nm using a spectrophotometer.

For data set [6], the system named is EVI1 gene. Briefly: EVI1 gene expression by PCR and agarose gel electrophoresis in AML1 cells transduced with shEVI1. It is filed as cell-based, human. An excerpt: (§3) EVI1 expression-inhibited AML1 cell line (hereinafter, also called “AML1 (shEVI1)”) was established by the transfection of shEVI1, which is a short hairpin RNA (shRNA) having cleavage activity of mRNA of EVI1 gene, into the AML1 cell line, which was originated from human acute myelocytic leukemia (AML).
Specifically, at first, shEVI1 (sense strand: […] UUG (SEQ ID No: 7) and antisense strand: […] GAGA (SEQ ID No: 8), which had been disclosed in Oncogene, 2006 Jun. 15; 25 (25): 3565-75), were inserted into pSIREN-RetroQ-ZsGreen vector of RNAi-Ready pSIREN-RetroQ-ZsGreen (produced by Clonetech Laboratories, Inc.) at BamH1-EcoR1 site to prepare a shEVI1 retrovector. […] It should be noted that as a control cell, the cell (hereinafter, also called “AML1 (shLuc)”) was established by transfecting a control vector (shLuc) attached to RNAi-Ready pSIREN-RetroQ-ZsGreen (produced by Clonetech Laboratories, Inc.) by the same method.
Each cell cultured steadily of the established above mentioned AML1(shEVI1) and AML1(shLuc) was recovered by centrifugation, the medium was removed, and 1 ml of Trizol™ (produced by Invitrogen Corp.) was added. […] The resultant RNA was dissolved in RNase-free water, the amount of RNA was measured by spectrophotometer at wavelength of 260 nm, and 1 μg of the RNA was transformed to cDNA with reverse transcriptase (superscript 3, produced by Invitrogen Corp.). […]

The subject of data set [7] is various integrin families including ITGA6 gene and ITGB4 gene. Briefly: Expression of integrin family and VE cadherin genes by PCR and agarose gel electrophoresis in AML1 cells transduced with shEVI1. In kind it is cell-based, human.
Excerpt: as §3
Specifically, at first, shEVI1 (sense strand: […] UUG (SEQ ID No: 7) and antisense strand: […] GAGA (SEQ ID No: 8), which had been disclosed in Oncogene, 2006 Jun. 15; 25 (25): 3565-75), were inserted into pSIREN-RetroQ-ZsGreen vector of RNAi-Ready pSIREN-RetroQ-ZsGreen (produced by Clonetech Laboratories, Inc.) at BamH1-EcoR1 site to prepare a shEVI1 retrovector. After that, 10 μg of the shEVI1 retrovector and 10 μg of p10A1 packaging vector (produced by Clonetech Laboratories, Inc.) were transduced to 293T cell using Hylimax liposome reagent (produced by DOJINDO Laboratories) to prepare a retrovirus containing shEVI1. After that, AML1 (shEVI1) was established by infecting the obtained retrovirus into 10^5 of AML1 cells. It should be noted that as a control cell, the cell (hereinafter, also called “AML1 (shLuc)”) was established by transfecting a control vector (shLuc) attached to RNAi-Ready pSIREN-RetroQ-ZsGreen (produced by Clonetech Laboratories, Inc.) by the same method.
Each cell cultured steadily of the established above mentioned AML1(shEVI1) and AML1(shLuc) was recovered by centrifugation, the medium was removed, and 1 ml of Trizol™ (produced by Invitrogen Corp.) was added. After that, 500 μL of chloroform was added, separated by centrifugation at 15000 rpm for 15 minutes, the upper layer was transferred to another tube, 500 μL of 2-propanol was added, separated by centrifugation at 15000 rpm for 10 minutes, and washed with 80% ethanol. The resultant RNA was dissolved in RNase-free water, the amount of RNA was measured by spectrophotometer at wavelength of 260 nm, and 1 μg of the RNA was transformed to cDNA with reverse transcriptase (superscript 3, produced by Invitrogen Corp.).
Using each of the resultant cDNA as a template, the cDNA was amplified by PCR method, and expression level of the genes was confirmed by agarose gel electrophoresis. Specifically, TaKaRa Extaq (produced by TaKaRaBio Inc.) was used as the polymerase, and PCR Thermal Cycler DICE (produced by TaKaRa Bio Inc.) was used as the PCR equipment. In addition, each cDNA was corrected by β-actin before the amplification by PCR. Base sequences of the primers used in the PCR were as follows;
The ones disclosed in Journal of Biomedical Science (2005)12:803-813.

Data set [8] concerns AML1 cell. Briefly: Accumulation of AML1 cells in thighbone bone marrow of transplanted NOG mouse (FACS). It is filed as in vivo. The following applies: 6 million AML1(shEVI1) cells injected into NOG mouse, bone marrow recovered 1 month after, control AML1(shLuc) printed as (330), FIG. 25. As for the experimental part: The above-established AML1(shEVI1) cell was transplanted into NOG Mouse™, and accumulation of the AML1(shEVI1) cell into the murine thighbone was examined after the transplantation. Here, NOG mouse is a severe immunodeficient mouse suitable for the preparation of humanized model mouse that is available from the Central Institute for Experimental Animals.
Specifically, 6 million of each of the AML1 (shLuc) cell and the AML1 (shEVI1) cell was injected into NOG mouse through venous artery, and bone marrow of the thighbone was recovered 1 month after. After that, a graph representing the fluorescence intensity in the horizontal axis was prepared by FACS, and analysis was made how frequently cells were distributed from low intensity (peak near to 0) to high fluorescence intensity.

Data set [9] deals with AML1 cell line. Briefly: Cellular adhesiveness assay of AML1 cell line on matrigel-coated 96-well plate (Cell counting kit 8). In kind it is cell-based, human. The following applies: AML1(shITGB4) relative to AML1(shLuc); FIG. 8. How it is done: Cellular adhesiveness was evaluated for the above-established AML1(shEVI1) (triplicate) and AML1(shLuc).
as §1
Cellular adhesiveness was evaluated for the established above-mentioned AML1(shITGB4) and AML1(shLuc) by the same method as the above-mentioned Example 1-2.
For orientation: Formazan colour is commonly taken as a measure of viable cells.

Data set [10] deals with ITGB4 gene. Briefly: ITGB4 gene expression by PCR in AML1 cell line transfected with shITGB4. In kind it is cell-based, human. The following applies: AML1(shITGB4) compared with AML1(shLuc); FIG. 9. The source says: ITGB4 expression-inhibited AML1 cell line (hereinafter also called “AML1(shITGB4)”) was established by the transfection of shRNA having an activity of cleaving mRNA of ITGB4 gene (hereinafter also called “shITGB4”) into AML1 cell line by the same method as the above-mentioned Example 2-1. It should be noted that the base sequences of the used shITGB4 were as follows.
Further, expression of ITGB4 gene in AML1 (shITGB4) was confirmed by the same method as the above-mentioned Example 1-1. As a result, as shown in the results of PCR agarose gel electrophoresis in FIG. 9, expression of ITGB4 gene was suppressed in AML1(shITGB4) compared with AML1(shLuc).

[11] abbreviates: AML1(shEVI1) compared with AML1(shLuc), FIG. 1.
Where [12] appears, read: triplicated experiment for AML1(shEVI1), AML1 cell not administered with shLuc or shEVI1 added as a control, FIG. 2.

With `Nc1ccn([C@@H]2O[C@H](CO)[C@@H](O)[C@@H]2O)c(=O)n1` [Ara-C], the “viability of AML1 cell line in the presence of the drug, osteoblast cell in the medium compared with none” value in [1] (Ara-C (1 μg/mL), FIG. 19) is “increase significantly”.

On to `COc1cc([C@@H]2c3cc4c(cc3[C@@H](O[C@@H]3O[C@@H]5CO[C@@H](C)O[C@H]5[C@H](O)[C@H]3O)[C@H]3COC(=O)[C@H]23)OCO4)cc(OC)c1O` [VP16], for which, in data set [1] (VP16 (5 μM), FIG. 18), the “viability of AML1 cell line in the presence of the drug, osteoblast cell in the medium compared with none” value is given as “increase significantly”.

B1: shEVI1: short hairpin RNA (shRNA) having cleavage activity of mRNA of EVI1 gene; SEQ ID No: 7 and SEQ ID No: 8 (nucleic acid)
chain 1: GAUCUCUCUAAGGCUGAACUAGCAGUUCAAGAGACUGCUAGUUCAGCCUUAGAUUUUUUG
chain 2: AAUUCAAAAAAUCUAAGGCUGAACUAGCAGUCUCUUGAACUGCUAGUUCAGCCUUAGAGA
For the molecule B1, the “decrease of cellular adhesiveness (ratio of the number of adhered cells to the number of total cells)” value in data set [2] is on record as “about 76%”. For the same molecule, the “expression of genes of various integrin families” value in data set [3] was “inhibited”. In data set [4], the “expression of the EVI1 gene” value is “inhibited”. The cellular proliferation ability result in data set [5] is given as “no significant difference”. Also, the EVI1 gene expression result in data set [6] (setting [11]) is reported as “inhibited”. Besides, in data set [6] (setting [12]), the EVI1 gene expression entry was “inhibition”. Besides, in data set [7] (setting [11]), the “expression of VE cadoherin gene” value was “inhibited”; the “gene expressions of various integrin families including ITGA6 gene and ITGB4 gene” value is “inhibition”. Also, in data set [7] (setting [12]), the “expression of VE cadherin genes” value is on record as “inhibition” and the “expression of various integrin families” value is recorded as “inhibition”. In data set [8], the “abundance rate of transplanted cells in bone marrow of the thighbone” value stood at 9.5%. The “drug resistance to Ara-C gained by the existence of osteoblast” value in data set [1] (AML1(shEVI1) vs AML1(shLuc), in the presence of Ara-C, FIG. 20) was “disappeared”.

B2: shITGB4: shRNA having an activity of cleaving mRNA of ITGB4 gene; SEQ ID No: 13 and SEQ ID No: 14 (nucleic acid)
chain 1: GAUCUCCGAGUUGCGUGGGGUGUGUCUUCAAGAGAGACACACUCCGUGCAGCUCUUUUUG
chain 2: AAUUCAAAAAGAGCUGCACGGAGUGUGUCUCUCUUGAAGACACACCCCACGCAACUCGGA
Take B2: the “cellular adhesiveness (ratio of the number of adhered cells to the number of total cells)” value in [9] is given as “decrease nearly to zero”. Besides, the “expression of ITGB4 gene” value in data set [10] is reported as “suppressed”.

Source of the values: patent US20120045773A1, “CELL ADHESION INHIBITOR AND APPLICATIONS THEREOF” (University of Miyazaki, priority 2009, published 2012).
